{"source": "patent US20130209454A1", "binders": {"B1": {"name": "3BNC55 T54W IgG (antibody, name in Kabat numbering, V domains shown)", "VH": "QVQLVQSGTAVKRPGASVRVSCQASGYTFTDYFIYWWRQAPGQGLEWLGWINPLWSQPSYPSRFQGRLTLTRDTFDEMLYMDLRGLRSDDTGIYFCARRHSDYCDFDIWGSGTQIIVSS", "VL": "DIQMTQSPSSLSASVGDKVTITCQTSAGYLNWYQQRRGRAPKLLMYDGSRLVTGVPSRFSGRRWGTQYNLTIGSLQPEDIATYYCQVYEFFGPGTRLDLKS"}, "B2": {"name": "NIH45-46 G54I IgG (antibody, name in Kabat numbering, V domains shown)", "VH": "QVRLSQSGGQMKKPGESMRLSCRASGYEFLNCPINWIRLAPGRRPEWMGWLKPRIGAVNYARKFQGRVTMTRDVYSDTAFLELRSLTSDDTAVYFCTRGKYCTARDYYNWDFEHWGRGAPVTVSS", "VL": "EIVLTQSPATLSLSPGETAIISCRTSQSGSLAWYQQRPGQAPRLVIYSGSTRAAGIPDRFSGSRWGADYNLSISNLESGDFGVYYCQQYEFFGQGTKVQVDI"}, "B3": {"name": "NIH45-46 G54L IgG (antibody, name in Kabat numbering, V domains shown)", "VH": "QVRLSQSGGQMKKPGESMRLSCRASGYEFLNCPINWIRLAPGRRPEWMGWLKPRLGAVNYARKFQGRVTMTRDVYSDTAFLELRSLTSDDTAVYFCTRGKYCTARDYYNWDFEHWGRGAPVTVSS", "VL": "EIVLTQSPATLSLSPGETAIISCRTSQSGSLAWYQQRPGQAPRLVIYSGSTRAAGIPDRFSGSRWGADYNLSISNLESGDFGVYYCQQYEFFGQGTKVQVDI"}, "B4": {"name": "NIH45-46 G54M IgG (antibody, name in Kabat numbering, V domains shown)", "VH": "QVRLSQSGGQMKKPGESMRLSCRASGYEFLNCPINWIRLAPGRRPEWMGWLKPRMGAVNYARKFQGRVTMTRDVYSDTAFLELRSLTSDDTAVYFCTRGKYCTARDYYNWDFEHWGRGAPVTVSS", "VL": "EIVLTQSPATLSLSPGETAIISCRTSQSGSLAWYQQRPGQAPRLVIYSGSTRAAGIPDRFSGSRWGADYNLSISNLESGDFGVYYCQQYEFFGQGTKVQVDI"}, "B5": {"name": "NIH45-46 G54H IgG (antibody, name in Kabat numbering, V domains shown)", "VH": "QVRLSQSGGQMKKPGESMRLSCRASGYEFLNCPINWIRLAPGRRPEWMGWLKPRHGAVNYARKFQGRVTMTRDVYSDTAFLELRSLTSDDTAVYFCTRGKYCTARDYYNWDFEHWGRGAPVTVSS", "VL": "EIVLTQSPATLSLSPGETAIISCRTSQSGSLAWYQQRPGQAPRLVIYSGSTRAAGIPDRFSGSRWGADYNLSISNLESGDFGVYYCQQYEFFGQGTKVQVDI"}, "B6": {"name": "NIH45-46^G54W Fab (C-terminal 6x-His tagged heavy chain, SPR) (Fab, V domains shown)", "VH": "QVRLSQSGGQMKKPGESMRLSCRASGYEFLNCPINWIRLAPGRRPEWMGWLKPRWGAVNYARKFQGRVTMTRDVYSDTAFLELRSLTSDDTAVYFCTRGKYCTARDYYNWDFEHWGRGAPVTVSS", "VL": "EIVLTQSPATLSLSPGETAIISCRTSQSGSLAWYQQRPGQAPRLVIYSGSTRAAGIPDRFSGSRWGADYNLSISNLESGDFGVYYCQQYEFFGQGTKVQVDI"}, "B7": {"name": "3BNC60 (antibody, V domains shown)", "VH": "QVHLSQSGAAVTKPGASVRVSCEASGYKISDHFIHWWRQAPGQGLQWVGWINPKTGQPNNPRQFQGRVSLTRQASWDFDTYSFYMDLKAVRSDDTAIYFCARQRSDFWDFDVWGSGTQVTVSS", "VL": "DIQMTQSPSSLSARVGDTVTITCQANGYLNWYQQRRGKAPKLLIYDGSKLERGVPARFSGRRWGQEYNLTINNLQPEDVATYFCQVYEFIVPGTRLDLKRTVA"}, "B8": {"name": "12A12^Y54W IgG (antibody, name in Kabat numbering, V domains shown)", "VH": "SQHLVQSGTQVKKPGASVRISCQASGYSFTDYVLHWWRQAPGQGLEWMGWIKPVWGARNYARRFQGRINFDRDIYREIAFMDLSGLRSDDTALYFCARDGSGDDTSWHLDPWGQGTLVIVSA", "VL": "DIQMTQSPSSLSASVGDRVTITCQAGQGIGSSLQWYQQKPGKAPKLLVHGASNLHRGVPSRFSGSGFHTTFSLTISGLQRDDFATYFCAVLEFFGPGTKVEIKR"}}, "key": {"[1]": {"target": "HIV-1 strain SC422661.8 envelope (gp120) (HIV-1)", "test": "cell-based or functional assay"}, "[2]": {"target": "HIV-1 strain TRO.11 envelope (gp120) (HIV-1)", "test": "cell-based or functional assay"}, "[3]": {"target": "HIV-1 strain AC10.0.29 envelope (gp120) (HIV-1)", "test": "cell-based or functional assay"}, "[4]": {"target": "HIV-1 strain CAP210.2.00.E8 envelope (gp120) (HIV-1)", "test": "cell-based or functional assay"}, "[5]": {"target": "HIV-1 strain CAP45.2.00.G3 envelope (gp120) (HIV-1)", "test": "cell-based or functional assay"}, "[6]": {"target": "HIV-1 strain Du172.17 envelope (gp120) (HIV-1)", "test": "cell-based or functional assay"}, "[7]": {"target": "HIV-1 Env of strain TRO.11 (HIV-1)", "test": "cell-based or functional assay"}, "[8]": {"target": "HIV-1 Env of strain Du172.17 (HIV-1)", "test": "cell-based or functional assay"}, "[9]": {"target": "HIV-1 Env of strain CAP45.2.00.G3 (HIV-1)", "test": "cell-based or functional assay"}, "[10]": {"target": "HIV-1 Env of strain AC10.0.29 (HIV-1)", "test": "cell-based or functional assay"}, "[11]": {"target": "HIV-1 Env of strain SC422661.8 (HIV-1)", "test": "cell-based or functional assay"}, "[12]": {"target": "HIV-1 Env of strain CAP210.2.00.E8 (HIV-1)", "test": "cell-based or functional assay"}, "[13]": {"target": "Q259.d2.17 gp120 core (HIV-1)"}, "[14]": {"target": "CAP244.2.00.D3 gp120 core (HIV-1)"}, "[15]": {"target": "93TH057 gp120 core (HIV-1)"}, "[16]": {"target": "the viral strains including SC422661.8, TRO0.11, CAP45.2.00G3, CAP210.2.00E8, Du172.17, and AC10.0.29", "test": "cell-based or functional assay"}, "[17]": {"target": "Env of HIV-1 strain AC10.0.29 (HIV-1)", "test": "cell-based or functional assay"}, "[18]": {"target": "Env of HIV-1 strain SC422661.8 (HIV-1)", "test": "cell-based or functional assay"}, "[19]": {"target": "Env of HIV-1 strain CAP210.2.00.E8 (HIV-1)", "test": "cell-based or functional assay"}, "[20]": {"target": "Env of HIV-1 strain TRO.11 (HIV-1)", "test": "cell-based or functional assay"}, "[21]": {"target": "Env of HIV-1 strain CAP45.2.00.G3 (HIV-1)", "test": "cell-based or functional assay"}, "[22]": {"target": "Env of HIV-1 strain Du172.17 (HIV-1)", "test": "cell-based or functional assay"}}, "data": [{"binder": "B1", "values": [{"measurement": "neutralization IC50", "setting": "[1]", "value": 0.6, "unit": "µg/mL"}, {"measurement": "neutralization IC50", "setting": "[2]", "value": "> 50", "unit": "µg/mL"}, {"measurement": "neutralization IC50", "setting": "[3]", "value": "> 50", "unit": "µg/mL"}, {"measurement": "neutralization IC50", "setting": "[4]", "value": "> 50", "unit": "µg/mL"}, {"measurement": "neutralization IC50", "setting": "[5]", "value": "> 50", "unit": "µg/mL"}, {"measurement": "neutralization IC50", "setting": "[6]", "value": "> 50", "unit": "µg/mL"}]}, {"binder": "B2", "values": [{"measurement": "neutralization IC50", "setting": "[7]", "value": 10, "unit": "µg/mL"}, {"measurement": "neutralization IC50", "setting": "[8]", "value": "> 50", "unit": "µg/mL"}, {"measurement": "neutralization IC50", "setting": "[9]", "value": "> 50", "unit": "µg/mL"}, {"measurement": "neutralization IC50", "setting": "[10]", "value": 8.6, "unit": "µg/mL"}, {"measurement": "neutralization IC50", "setting": "[11]", "value": 0.1, "unit": "µg/mL"}, {"measurement": "neutralization IC50", "setting": "[12]", "value": "> 50", "unit": "µg/mL"}]}, {"binder": "B3", "values": [{"measurement": "neutralization IC50", "setting": "[7]", "value": 0.3, "unit": "µg/mL"}, {"measurement": "neutralization IC50", "setting": "[8]", "value": "> 50", "unit": "µg/mL"}, {"measurement": "neutralization IC50", "setting": "[9]", "value": "> 50", "unit": "µg/mL"}, {"measurement": "neutralization IC50", "setting": "[10]", "value": 1.7, "unit": "µg/mL"}, {"measurement": "neutralization IC50", "setting": "[11]", "value": 0.1, "unit": "µg/mL"}, {"measurement": "neutralization IC50", "setting": "[12]", "value": "> 50", "unit": "µg/mL"}]}, {"binder": "B4", "values": [{"measurement": "neutralization IC50", "setting": "[7]", "value": 0.3, "unit": "µg/mL"}, {"measurement": "neutralization IC50", "setting": "[8]", "value": "> 50", "unit": "µg/mL"}, {"measurement": "neutralization IC50", "setting": "[9]", "value": "> 50", "unit": "µg/mL"}, {"measurement": "neutralization IC50", "setting": "[10]", "value": 1.5, "unit": "µg/mL"}, {"measurement": "neutralization IC50", "setting": "[11]", "value": 0.06, "unit": "µg/mL"}, {"measurement": "neutralization IC50", "setting": "[12]", "value": "> 50", "unit": "µg/mL"}]}, {"binder": "B5", "values": [{"measurement": "neutralization IC50", "setting": "[7]", "value": 0.2, "unit": "µg/mL"}, {"measurement": "neutralization IC50", "setting": "[8]", "value": "> 50", "unit": "µg/mL"}, {"measurement": "neutralization IC50", "setting": "[9]", "value": "> 50", "unit": "µg/mL"}, {"measurement": "neutralization IC50", "setting": "[10]", "value": 0.6, "unit": "µg/mL"}, {"measurement": "neutralization IC50", "setting": "[11]", "value": 0.09, "unit": "µg/mL"}, {"measurement": "neutralization IC50", "setting": "[12]", "value": "> 50", "unit": "µg/mL"}]}, {"binder": "B6", "values": [{"measurement": "Kd", "setting": "[13]", "value": 48, "unit": "nM"}, {"measurement": "koff", "setting": "[13]", "value": 0.0017, "unit": "s⁻¹"}, {"measurement": "kon", "setting": "[13]", "value": 34000, "unit": "M⁻¹ s⁻¹"}, {"measurement": "Kd", "setting": "[14]", "value": 37, "unit": "nM"}, {"measurement": "kon", "setting": "[14]", "value": 22000, "unit": "M⁻¹ s⁻¹"}, {"measurement": "Kd", "setting": "[15]", "value": 63, "unit": "nM"}, {"measurement": "koff", "setting": "[15]", "value": 0.0016, "unit": "s⁻¹"}, {"measurement": "kon", "setting": "[15]", "value": 26000, "unit": "M⁻¹ s⁻¹"}]}, {"binder": "B7", "values": [{"measurement": "IC50 (averaged across the strains)", "setting": "[16]", "value": 0.3, "unit": "µg/mL"}, {"measurement": "IC50", "setting": "[17]", "value": "> 50", "unit": "µg/mL"}, {"measurement": "IC50", "setting": "[18]", "value": 0.042, "unit": "µg/mL"}, {"measurement": "IC50", "setting": "[19]", "value": 10.6, "unit": "µg/mL"}, {"measurement": "IC50", "setting": "[20]", "value": 0.018, "unit": "µg/mL"}, {"measurement": "IC50", "setting": "[21]", "value": 43.2, "unit": "µg/mL"}, {"measurement": "IC50", "setting": "[22]", "value": 1.4, "unit": "µg/mL"}]}, {"binder": "B8", "values": [{"measurement": "neutralization IC50", "setting": "[1]", "value": 0.2, "unit": "µg/mL"}, {"measurement": "neutralization IC50", "setting": "[2]", "value": 0.2, "unit": "µg/mL"}, {"measurement": "neutralization IC50", "setting": "[3]", "value": 0.5, "unit": "µg/mL"}, {"measurement": "neutralization IC50", "setting": "[4]", "value": "> 50", "unit": "µg/mL"}, {"measurement": "neutralization IC50", "setting": "[5]", "value": 0.2, "unit": "µg/mL"}, {"measurement": "neutralization IC50", "setting": "[6]", "value": 0.1, "unit": "µg/mL"}]}]}
